This passage reports IC50 results from patent publication US20110150901A1.

For the experiment, the target named is complex of FGFR1c and β-Klotho (recombinant proteins) (UniProt P11362). In words: AlphaScreen competition. Conditions: ligand. In general terms: Bead proximity is the source of the signal in Alpha formats.

The IC50 is the concentration that inhibits the measured activity by half.

complex of FGFR1c and β-Klotho (recombinant proteins), sequence (P11362 other isoform, or with tags, fused parts or gaps, chain 1 of 2): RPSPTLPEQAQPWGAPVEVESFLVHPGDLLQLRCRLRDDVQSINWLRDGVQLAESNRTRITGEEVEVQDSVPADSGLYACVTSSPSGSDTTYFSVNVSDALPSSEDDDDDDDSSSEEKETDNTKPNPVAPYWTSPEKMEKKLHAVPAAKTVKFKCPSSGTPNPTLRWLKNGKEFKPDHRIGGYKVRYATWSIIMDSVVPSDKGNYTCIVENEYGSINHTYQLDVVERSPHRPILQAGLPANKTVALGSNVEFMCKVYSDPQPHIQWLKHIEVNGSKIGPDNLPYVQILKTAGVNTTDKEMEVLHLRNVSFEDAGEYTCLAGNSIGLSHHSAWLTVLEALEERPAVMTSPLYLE
complex of FGFR1c and β-Klotho (recombinant proteins), sequence (Q86Z14 53-996, chain 2 of 2, further chain): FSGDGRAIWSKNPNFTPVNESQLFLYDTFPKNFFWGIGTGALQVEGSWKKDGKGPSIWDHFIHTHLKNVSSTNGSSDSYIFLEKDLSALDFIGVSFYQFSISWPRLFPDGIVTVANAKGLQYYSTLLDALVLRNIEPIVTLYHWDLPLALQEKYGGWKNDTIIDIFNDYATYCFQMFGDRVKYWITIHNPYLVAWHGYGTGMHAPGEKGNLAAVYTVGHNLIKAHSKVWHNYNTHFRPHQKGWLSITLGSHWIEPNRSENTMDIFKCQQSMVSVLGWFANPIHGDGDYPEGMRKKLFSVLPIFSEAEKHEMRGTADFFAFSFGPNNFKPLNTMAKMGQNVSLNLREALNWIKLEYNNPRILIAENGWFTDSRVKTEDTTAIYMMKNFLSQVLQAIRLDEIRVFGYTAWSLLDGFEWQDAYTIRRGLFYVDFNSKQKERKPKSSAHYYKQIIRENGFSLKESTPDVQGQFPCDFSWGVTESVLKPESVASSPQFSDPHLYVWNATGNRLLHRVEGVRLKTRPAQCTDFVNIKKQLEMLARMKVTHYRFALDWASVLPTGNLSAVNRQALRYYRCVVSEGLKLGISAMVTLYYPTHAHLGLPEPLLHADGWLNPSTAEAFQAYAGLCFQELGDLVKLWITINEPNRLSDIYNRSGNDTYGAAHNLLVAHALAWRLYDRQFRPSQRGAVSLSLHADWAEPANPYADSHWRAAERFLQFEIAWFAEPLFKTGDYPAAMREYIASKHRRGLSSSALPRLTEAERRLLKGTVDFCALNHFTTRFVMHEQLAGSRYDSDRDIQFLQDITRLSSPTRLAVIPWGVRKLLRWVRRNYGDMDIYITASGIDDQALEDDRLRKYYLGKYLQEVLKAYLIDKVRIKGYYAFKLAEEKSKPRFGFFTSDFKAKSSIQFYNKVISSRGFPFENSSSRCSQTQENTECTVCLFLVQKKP

For “human FGF21 (from UniProt Q9NSA1 29-209)”, the IC50 was 2.6 nM.
